Experimental data: patent US20120165204A1

Assays:
[1] = biological target: CRIB domain of PAK1 (residues 65-150, extended CRIB domain) with C-terminal 6x Histidine tag (UniProt Q13153); assay: ITC at 25 °C, PA-Rac1 mutant injected into PAK1 CRIB (10 µM), experiment 2; column head prints 'mM', paragraph 152 gives µM
[2] = biological target: CRIB domain of PAK1 (residues 65-150, extended CRIB domain) with C-terminal 6x Histidine tag (UniProt Q13153); assay: ITC at 25 °C, PA-Rac1 mutant injected into PAK1 CRIB (10 µM), experiment 1; column head prints 'mM', paragraph 152 and the legend of FIG. 3 give µM
[3] = biological target: CRIB domain of PAK1 (residues 65-150, extended CRIB domain) with C-terminal 6x Histidine tag (UniProt Q13153); assay: ITC at 25 °C, experiment 2; parameters: unit not given here
[4] = biological target: CRIB domain of PAK1 (residues 65-150, extended CRIB domain) with C-terminal 6x Histidine tag (UniProt Q13153); assay: ITC
[5] = biological target: CRIB domain of PAK1 (residues 65-150, extended CRIB domain) with C-terminal 6x Histidine tag (UniProt Q13153); assay: ITC at 25 °C, experiment 2, stoichiometry of one-site model
[6] = biological target: CRIB domain of PAK1 (residues 65-150, extended CRIB domain) with C-terminal 6x Histidine tag (UniProt Q13153); assay: ITC at 25 °C, experiment 1, stoichiometry of one-site model
[7] = biological target: CRIB domain of PAK1 (residues 65-150, extended CRIB domain) with C-terminal 6x Histidine tag (UniProt Q13153); assay: ITC at 25 °C, experiment 1; parameters: unit not given here
[8] = biological target: CRIB domain of PAK1 (residues 65-150, extended CRIB domain) with C-terminal 6x Histidine tag (UniProt Q13153); assay: ITC at 25 °C, PA-Rac1 mutant injected into PAK1 CRIB (10 µM), experiment 2; column head prints 'mM', paragraph 152 gives 220-280 nM
[9] = biological target: CRIB domain of PAK1 (residues 65-150, extended CRIB domain) with C-terminal 6x Histidine tag (UniProt Q13153); assay: ITC at 25 °C, PA-Rac1 mutant injected into PAK1 CRIB (10 µM), experiment 1; column head prints 'mM', paragraph 152 and the legend of FIG. 3 give µM / nM

Kd [1] [nM]	Kd [2] [nM]	ΔH [3]	ΔS [3]	fold weaker affinity than the lit state mimetic I539E [4] [fold]	N [5]	N [6]	ΔH [7]	ΔS [7]	Kd [8] [nM]	Kd [9] [nM]	Substance
3100	2300	-5600	6.6	10	0.64	1	-7000	2.6			PA-Rac1 C450A (dark state mutant) with N-terminal six Histidine tag (from UniProt P63000 4-192)
		-18000	-31		0.95	0.95		-30	280	220	PA-Rac1 I539E (lit state mutant) with N-terminal six Histidine tag (from UniProt P63000 4-192)
